*1 amine or outer side, *2 acyl side, *3 side chain or, on linkers, in order; H or OH if unused. Primed or numbered codes have the meaning given here. [ ]: non-standard residue; d: D form. The star is where a group is joined. Tyr(OMe)(3) = Tyr, methoxy (Y(OMe)), COc1ccc(C[C@H](N[*:1])C(=O)[*:2])cc1; WPEG40K = not defined here; Orn = NCCC[C@H](N)C(=O)O; Abu = CC[C@H](N)C(=O)O; Hexanoyl = CCCCCC(=O)*; Aib = CC(C)(N)C(=O)O
Key:
[1] = Rat serum stability study (DiscoveRx cAMP read-out on CHO-VPAC2 cells); details: EC50, 4° C./EC50, 37° C., values >100% may represent release of intact peptide from the PEG conjugate; for 24 h stab (%): 24 h in rat serum at 37° C.; for 72 h stab (%): 72 h in rat serum at 37° C.
Procedure: In order to determine the stability of VPAC2 receptor peptide agonists in rat serum, CHO-VPAC2 cells clone #6 (96 well plates/50,000 cells/well and 1 day culture), PBS 1× (Gibco), the peptides for the analysis in a 100 μM stock solution, rat serum from a sacrificed normal Wistar rat, aprotinin, and a DiscoveRx assay kit are obtained. The rat serum is stored at 4° C. until use and is used within two weeks.
The aliquot is stored with aprotinin at 4° C. The aliquot is stored without aprotinin at 37° C. The aliquots are incubated for 24 or 72 hours.
On Day 1, after incubation of the aliquots prepared on day 0 for 24 or 72 hours, an incubation buffer containing PBS+1.3 mM CaCl2, 1.2 mM MgCl2, 2 mM glucose, and 0.25 mM IBMX is prepared. A plate with 11 serial 5× dilutions of peptide for the 4° C. and 37° C. aliquot is prepared for each peptide studied. […] The plate(s) are washed with cells twice in incubation buffer. The plates are allowed to hold 50 μL incubation media per well for 15 minutes. 50 μL solution per well is transferred to the cells from the plate prepared with 11 serial 5× dilutions of peptide for the 4° C. and 37° C. aliquot for each peptide studied, using the maximal concentrations that are indicated by the primary screen, in duplicate. This step dilutes the peptide concentration by a factor of two. The cells are incubated at room temperature for 30 minutes. The supernatant is removed. 40 μL/well of the DiscoveRx antibody/extraction buffer is added. The cells are incubated on the shaker (300 rpm) for 1 hour. Normal procedure with the DiscoveRx kit is followed. cAMP standards are included in column 12. EC50 values are determined from the cAMP assay data.

Human VPAC1 Receptor = molecular target: T1, Human VPAC1 Receptor (Homo sapiens, UniProt P32241); assay: Filter binding assay, 125I-labeled VIP, membranes of cells transiently transfected with human VPAC1; details: 125I-labeled VIP tracer
T1 construct: expressed in transfected cells
T1 sequence (P32241 31-457): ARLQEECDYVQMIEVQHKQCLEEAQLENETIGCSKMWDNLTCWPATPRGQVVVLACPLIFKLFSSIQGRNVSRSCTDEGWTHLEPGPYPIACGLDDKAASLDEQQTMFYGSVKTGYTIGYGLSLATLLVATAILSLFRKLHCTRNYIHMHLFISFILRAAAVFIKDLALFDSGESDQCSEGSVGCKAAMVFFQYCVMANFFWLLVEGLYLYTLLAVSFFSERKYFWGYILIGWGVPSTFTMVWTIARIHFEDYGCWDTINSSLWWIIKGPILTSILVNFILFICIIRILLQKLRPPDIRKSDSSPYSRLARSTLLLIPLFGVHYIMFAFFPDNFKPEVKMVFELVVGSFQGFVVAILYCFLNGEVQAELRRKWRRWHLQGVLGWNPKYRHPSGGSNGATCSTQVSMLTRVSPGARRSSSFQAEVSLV
Procedure: For this assay, the solutions and equipment include:
Presoak solution: 0.5% Polyethyleneamine in Aqua dest
Buffer for flushing filter plates: 25 mM HEPES pH 7.4
Blocking buffer: 25 mM HEPES pH 7.4; 0.2% protease free BSA
Assay buffer: 25 mM HEPES pH 7.4; 0.5% protease free BSA
Dilution and assay plate: PS-Microplate, U form
Filtration Plate Multiscreen FB Opaque Plate; […] Type B Glasfiber filter
In order to prepare the filter plates, the presoak solution is aspirated by vacuum filtration. The plates are flushed twice with 200 μL flush buffer. 200 μL blocking buffer is added to the filter plate. The filter plate is then incubated with 200 μL presoak solution for 1 hour at room temperature.
The assay plate is filled with 25 μL assay buffer, 25 μL membranes (2.5 μg) suspended in assay buffer, 25 μL agonist in assay buffer, and 25 μL tracer (about 40000 cpm) in assay buffer. The filled plate is incubated for 1 hour with shaking.
The transfer from assay plate to filter plate is conducted. The blocking buffer is aspirated by vacuum filtration and washed two times with flush buffer. 90 μL is transferred from the assay plate to the filter plate. The 90 μL transferred from assay plate is aspirated and washed three times with 200 μL flush buffer. The plastic support is removed. It is dried for 1 hour at 60° C. 30 μL Microscint is added. The count is performed.

[2] = Pharmacokinetic profiles of PEGylated peptides in Fisher 344 rats; type: in vivo, rat; details: 100 μg agonist/kg, plasma RIA, mean N = 3
Procedure: Pharmacokinetic profiles of PEGylated peptides. Healthy Fisher 344 rats (3 animals per group) were injected with 100 μg agonist/kg (agonist amount based on peptide content and dissolved in PBS buffer). Blood samples were drawn 3, 12, 24, 48, 72, 96 and 168 hour post dosing and the peptide content in plasma was analysed by a radio-immunoassay (RIA) directed against the N-terminus of the peptide. PK parameters were then calculated using a model-independent method (WinNonlin Pro, Pharsight Corp., Mountain View, Calif., USA).

Substance: C6-HSDAVFTEQY(OMe)TOrnLRK(WPEG40K)QLAAbuAibOrnYLQAibIOrnOrnGGPSSGAPPPS-NH2 (Hexanoyl-HSDAVFTEQ[Tyr(OMe)(3)]T[Orn]LRK(WPEG40K)QLA[Abu][Aib][Orn]YLQ[Aib]I[Orn][Orn]GGPSSGAPPPS-NH2; reading uncertain) [Agonist P557]
- 24 h stab (%) [1]: 131%

Substance: C6-HSDAVFTEQY(OMe)TOrnLRK(WPEG40K)QVAAAibOrnYLQSIOrnOrnGGPSSGAPPPS-NH2 (HSDAVFTEQYTXLRXQVAAXXYLQSIXXGGPSSGAPPPS; C6 acyl, PEG40K on Lys, C-terminal amide; Synthetic sequence PEGylated VPAC2 receptor agonist) [Agonist P529]
- 72 h stab (%) [1]: 119%

Substance: C6-HSDAVFTEQY(OMe)TOrnLRAibQLAAbuAibOrnYLQSC(PEG40K)OrnOrnGGPSSGAPPPS-NH2 (HSDAVFTEQYTXLRXQLAXXXYLQSCXXGGPSSGAPPPS; C6 acyl, PEG40K on Cys, C-terminal amide; Synthetic sequence PEGylated VPAC2 receptor agonist) [Agonist P543]
- 24 h stab (%) [1]: 119%

Substance: C6-HSDAVFTEQY(OMe)TOrnLRAibQLAAAibOrnYLQSIOrnOrnC(PEG40K)GGPSSGAPPPS-NH2 (HSDAVFTEQYTXLRXQLAAXXYLQSIXXCGGPSSGAPPPS; C6 acyl, PEG40K on Cys, C-terminal amide; Synthetic sequence PEGylated VPAC2 receptor agonist) [Agonist P560]
- 24 h stab (%) [1]: 192%

Substance: C6-HSDAVFTEQY(OMe)TOrnLRAibQVAAAibOrnYLQAibIOrnOrnGGPSSGAPPPC(PEG40K)-NH2 (HSDAVFTEQYTXLRXQVAAXXYLQXIXXGGPSSGAPPPC; C6 acyl, PEG40K on Cys, C-terminal amide; Synthetic sequence PEGylated VPAC2 receptor agonist) [Agonist P509]
- IC50 (Human VPAC1 Receptor): > 25000 nM

Substance: C6-HSDAVFTEQY(OMe)TOrnLRAibQVAAAibOrnYLQSK(WPEG40K)OrnOrnGGPSSGAPPPS-NH2 (HSDAVFTEQYTXLRXQVAAXXYLQSXXXGGPSSGAPPPS; C6 acyl, PEG40K on Lys, C-terminal amide; Synthetic sequence PEGylated VPAC2 receptor agonist) [Agonist P535]
- IC50 (Human VPAC1 Receptor): > 25000 nM

Substance: C6-HSDAVFTEQY(OMe)TOrnLRAibQLAAbuAibOrnYLQSIOrnOrnC(PEG4OK)GGPSSGAPPPS-NH2 (HSDAVFTEQYTXLRXQLAXXXYLQSIXXCGGPSSGAPPPS; C6 acyl, PEG40K on Cys, C-terminal amide; Synthetic sequence PEGylated VPAC2 receptor agonist) [Agonist P566]
- 24 h stab (%) [1]: 152%

Substance: C6-HSDAVFTEQY(OMe)TOrnLRAibQLAAbuAibOrnYLQAibC(PEG40K)OrnOrnGGPSSGAPPPS-NH2 (HSDAVFTEQYTXLRXQLAXXXYLQXCXXGGPSSGAPPPS; C6 acyl, PEG40K on Cys, C-terminal amide; Synthetic sequence PEGylated VPAC2 receptor agonist) [Agonist P541]
- IC50 (Human VPAC1 Receptor): > 25000 nM

Substance: C6-HSDAVFTEQY(OMe)TOrnLRAibQVAAAibK(W-PEG40K)YLQSIOrnOrnGGPSSGAPPPS-NH2 (HSDAVFTEQYTXLRXQVAAXXYLQSIXXGGPSSGAPPPS; C6 acyl; PEG40K; non-natural residues; amide; Synthetic sequence PEGylated VPAC2 receptor peptide agonist) [Agonist P410]
- IC50 (Human VPAC1 Receptor): > 25000 nM

Substance: C6-HSDAVFTEQY(OMe)TOrnLRAibQVAAAibOrnYLQSIOrnK(WPEG40K)OrnGGPSSGAPPPS-NH2 (HSDAVFTEQYTXLRXQVAAXXYLQSIXXXGGPSSGAPPPS; C6 acyl; PEG40K; non-natural residues; amide; Synthetic sequence PEGylated VPAC2 receptor peptide agonist) [Agonist P454]
- IC50 (Human VPAC1 Receptor): > 25000 nM

Substance: C6-HSDAVFTEQY(OMe)TOrnLRAibQLAAbuAibOrnYLQAibIOrnOrnGGPSSGAPPPC(PEG20K)C(PEG20K)-NH2 (HSDAVFTEQYTXLRXQLAXXXYLQXIXXGGPSSGAPPPCC; C6 acyl, two PEG20K, C-terminal amide; Synthetic sequence PEGylated VPAC2 receptor agonist) [Agonist P517]
- IC50 (Human VPAC1 Receptor): > 25000 nM

Substance: C6-HSDAVFTEQY(OMe)TOrnLRAibQVAAAibOrnYLQSIOrnK(CO(CH2)2SPEG20K)OrnGGPSSGAPPPC(PEG20K)-NH2 (HSDAVFTEQYTXLRXQVAAXXYLQSIXXXGGPSSGAPPPC; C6 acyl, two PEG20K, C-terminal amide; Synthetic sequence PEGylated VPAC2 receptor agonist) [Agonist P499]
- AUC0-last [2]: 6650 ng·h/mL
- Cl/F [2]: 0.25 mL/min/kg
- Cmax [2]: 132 ng/mL
- Tmax [2]: 24 h
- T½ [2]: 25 h
- IC50 (Human VPAC1 Receptor): > 25000 nM

Substance: C6-HSDAVFTEQY(OMe)TOrnLRAibQVAAK(CO(CH2)2SPEG40K)OrnYLQSIOrnOrnGGPSSGAPPPS-NH2 (HSDAVFTEQYTXLRXQVAAXXYLQSIXXGGPSSGAPPPS; N-terminal C6 acyl, PEG40K on Lys, C-terminal amide; Synthetic sequence PEGylated VPAC2 receptor agonist) [Agonist P475]
- 24 h stab (%) [1]: 61%

Substance: C6-HSDAVFTEQY(OMe)TOrnLRK(CO(CH2)2SPEG40K)QVAAAibOrnYLQSIOrnOrnGGPSSGAPPPS-NH2 (HSDAVFTEQYTXLRXQVAAXXYLQSIXXGGPSSGAPPPS; N-terminal C6 acyl, PEG40K on Lys, C-terminal amide; Synthetic sequence PEGylated VPAC2 receptor agonist) [Agonist P485]
- 24 h stab (%) [1]: 65%

Substance: C6-HSDAVFTEQY(OMe)TOrnLRAibQLAAbuAibOrnYLQSIOrnOrnGGPSSGAPPPC(PEG20K)C(PEG20K)-NH2 (HSDAVFTEQYTXLRXQLAXXXYLQSIXXGGPSSGAPPPCC; C6 acyl, two PEG20K, C-terminal amide; Synthetic sequence PEGylated VPAC2 receptor agonist) [Agonist P523]
- 72 h stab (%) [1]: 281%

Substance: C6-HSDAVFTEQY(OMe)TOrnLRAibQVAK(CO(CH2)2SPEG20K)AibOrnYLQSIOrnOrnGGPSSGAPPPC(PEG20K)-NH2 (HSDAVFTEQYTXLRXQVAXXXYLQSIXXGGPSSGAPPPC; C6 acyl, two PEG20K, C-terminal amide; Synthetic sequence PEGylated VPAC2 receptor agonist) [Agonist P492]
- 24 h stab (%) [1]: 131%

Substance: C6-HSDAVFTEQY(OMe)TOrnLRAibQVAAAibC(PEG40K)YLQSIOrnOrnGGPSSGAPPPS-NH2 (HSDAVFTEQYTXLRXQVAAXCYLQSIXXGGPSSGAPPPS; C6 acyl; PEG40K; non-natural residues; amide; Synthetic sequence PEGylated VPAC2 receptor peptide agonist) [Agonist P460]
- IC50 (Human VPAC1 Receptor): > 25000 nM
